In PMC1888729, “Control of Pre-mRNA Splicing by the General Splicing Factors PUF60 and U2AF65”:

Assays:
[1] = biological target: T1, PUF60 (short isoform PUF60S, HEK-293E-derived) (Homo sapiens, UniProt Q9UHX1-2 1-542); experiment: EMSA; with U2AF65/35; PUF60 binding enhanced, U2AF:RNA complex decreases; 25 mM Tris pH 7.5, 25 mM NaCl, 1 mM EDTA, 0.1 mg/ml tRNA, 0.5 mg/ml BSA, ~0.2 nM RNA, 60 min room temperature (6% native gel in cold room); footprints same plus 1 U/ml RNasin, 30 min, then 2.6 mg/ml tRNA with RNase 5 min; details: protein: recombinant; label: 32P; single strand
T1 sequence (Q9UHX1 other isoform, or with tags, fused parts or gaps): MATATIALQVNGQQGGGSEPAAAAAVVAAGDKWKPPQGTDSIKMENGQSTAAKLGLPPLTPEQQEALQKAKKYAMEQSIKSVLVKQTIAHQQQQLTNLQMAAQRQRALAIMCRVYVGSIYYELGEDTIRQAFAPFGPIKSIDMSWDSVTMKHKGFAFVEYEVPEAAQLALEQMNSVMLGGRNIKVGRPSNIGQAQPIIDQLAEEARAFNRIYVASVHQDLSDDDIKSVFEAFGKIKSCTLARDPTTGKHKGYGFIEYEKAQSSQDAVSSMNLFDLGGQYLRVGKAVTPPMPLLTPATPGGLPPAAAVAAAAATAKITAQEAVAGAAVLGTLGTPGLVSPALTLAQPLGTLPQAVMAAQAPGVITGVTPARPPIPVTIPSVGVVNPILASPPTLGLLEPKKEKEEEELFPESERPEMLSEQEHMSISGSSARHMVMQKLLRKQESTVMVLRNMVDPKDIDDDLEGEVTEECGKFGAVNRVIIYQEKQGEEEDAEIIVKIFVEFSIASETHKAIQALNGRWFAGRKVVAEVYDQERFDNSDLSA

U2AF65 (in U2AF65/35 …) = biological target: U2AF65 (in U2AF65/35 heterodimer);U2AF35 (in U2AF65/35 heterodimer) (Homo sapiens;Homo sapiens, UniProt P26368;Q01081 1-475;1-240, |); experiment: EMSA; U2AF65/35 alone; 25 mM Tris pH 7.5, 25 mM NaCl, 1 mM EDTA, 0.1 mg/ml tRNA, 0.5 mg/ml BSA, ~0.2 nM RNA, 60 min room temperature (6% native gel in cold room); footprints same plus 1 U/ml RNasin, 30 min, then 2.6 mg/ml tRNA with RNase 5 min; details: protein: recombinant;recombinant; tags: ;; copies: 1;1; label: 32P; single strand
Chain of U2AF65 (in U2AF65/35 heterodimer);U2AF35 (in U2AF65/35 heterodimer) (P26368 whole entry, chain 1 of 2, canonical isoform): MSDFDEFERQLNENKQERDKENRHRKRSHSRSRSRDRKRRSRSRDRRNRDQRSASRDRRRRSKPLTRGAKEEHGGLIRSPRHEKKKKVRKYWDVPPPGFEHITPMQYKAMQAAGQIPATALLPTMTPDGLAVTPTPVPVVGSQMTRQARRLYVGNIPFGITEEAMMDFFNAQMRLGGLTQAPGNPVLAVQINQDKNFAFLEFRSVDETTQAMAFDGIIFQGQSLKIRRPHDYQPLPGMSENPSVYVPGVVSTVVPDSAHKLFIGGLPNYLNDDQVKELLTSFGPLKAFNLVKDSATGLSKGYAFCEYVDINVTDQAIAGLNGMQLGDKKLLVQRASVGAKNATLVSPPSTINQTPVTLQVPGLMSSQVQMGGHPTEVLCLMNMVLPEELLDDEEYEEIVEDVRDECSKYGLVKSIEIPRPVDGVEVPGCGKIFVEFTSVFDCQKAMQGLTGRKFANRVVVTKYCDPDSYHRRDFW
Chain of U2AF65 (in U2AF65/35 heterodimer);U2AF35 (in U2AF65/35 heterodimer) (Q01081 whole entry, chain 2 of 2, canonical isoform): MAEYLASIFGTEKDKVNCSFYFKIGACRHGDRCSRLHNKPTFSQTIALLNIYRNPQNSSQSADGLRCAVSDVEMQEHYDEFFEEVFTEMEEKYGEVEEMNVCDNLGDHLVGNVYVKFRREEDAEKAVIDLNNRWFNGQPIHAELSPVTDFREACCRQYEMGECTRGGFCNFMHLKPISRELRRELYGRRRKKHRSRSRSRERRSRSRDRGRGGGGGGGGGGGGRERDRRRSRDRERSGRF

[2] = biological target: T1, PUF60 (short isoform PUF60S, …); experiment: EMSA; PUF60 alone; 25 mM Tris pH 7.5, 25 mM NaCl, 1 mM EDTA, 0.1 mg/ml tRNA, 0.5 mg/ml BSA, ~0.2 nM RNA, 60 min room temperature (6% native gel in cold room); footprints same plus 1 U/ml RNasin, 30 min, then 2.6 mg/ml tRNA with RNase 5 min; details: protein: recombinant; label: 32P; single strand

Measured: binding result

UUCGUGCUGACCCUGUCCCUUUUUUUUCCACAGC (ssRNA) [AdML 3' splice-site RNA, 34 nt]
binds: all assays above
